Laboratory results taken from PMC8303762.

Target: insulin-like growth factor-1 receptor (IGF-1R) on MCF-7 cells (human (endogenous in MCF-7)) (UniProt P08069)
UniProt P08069, sequence (P08069 31-1367): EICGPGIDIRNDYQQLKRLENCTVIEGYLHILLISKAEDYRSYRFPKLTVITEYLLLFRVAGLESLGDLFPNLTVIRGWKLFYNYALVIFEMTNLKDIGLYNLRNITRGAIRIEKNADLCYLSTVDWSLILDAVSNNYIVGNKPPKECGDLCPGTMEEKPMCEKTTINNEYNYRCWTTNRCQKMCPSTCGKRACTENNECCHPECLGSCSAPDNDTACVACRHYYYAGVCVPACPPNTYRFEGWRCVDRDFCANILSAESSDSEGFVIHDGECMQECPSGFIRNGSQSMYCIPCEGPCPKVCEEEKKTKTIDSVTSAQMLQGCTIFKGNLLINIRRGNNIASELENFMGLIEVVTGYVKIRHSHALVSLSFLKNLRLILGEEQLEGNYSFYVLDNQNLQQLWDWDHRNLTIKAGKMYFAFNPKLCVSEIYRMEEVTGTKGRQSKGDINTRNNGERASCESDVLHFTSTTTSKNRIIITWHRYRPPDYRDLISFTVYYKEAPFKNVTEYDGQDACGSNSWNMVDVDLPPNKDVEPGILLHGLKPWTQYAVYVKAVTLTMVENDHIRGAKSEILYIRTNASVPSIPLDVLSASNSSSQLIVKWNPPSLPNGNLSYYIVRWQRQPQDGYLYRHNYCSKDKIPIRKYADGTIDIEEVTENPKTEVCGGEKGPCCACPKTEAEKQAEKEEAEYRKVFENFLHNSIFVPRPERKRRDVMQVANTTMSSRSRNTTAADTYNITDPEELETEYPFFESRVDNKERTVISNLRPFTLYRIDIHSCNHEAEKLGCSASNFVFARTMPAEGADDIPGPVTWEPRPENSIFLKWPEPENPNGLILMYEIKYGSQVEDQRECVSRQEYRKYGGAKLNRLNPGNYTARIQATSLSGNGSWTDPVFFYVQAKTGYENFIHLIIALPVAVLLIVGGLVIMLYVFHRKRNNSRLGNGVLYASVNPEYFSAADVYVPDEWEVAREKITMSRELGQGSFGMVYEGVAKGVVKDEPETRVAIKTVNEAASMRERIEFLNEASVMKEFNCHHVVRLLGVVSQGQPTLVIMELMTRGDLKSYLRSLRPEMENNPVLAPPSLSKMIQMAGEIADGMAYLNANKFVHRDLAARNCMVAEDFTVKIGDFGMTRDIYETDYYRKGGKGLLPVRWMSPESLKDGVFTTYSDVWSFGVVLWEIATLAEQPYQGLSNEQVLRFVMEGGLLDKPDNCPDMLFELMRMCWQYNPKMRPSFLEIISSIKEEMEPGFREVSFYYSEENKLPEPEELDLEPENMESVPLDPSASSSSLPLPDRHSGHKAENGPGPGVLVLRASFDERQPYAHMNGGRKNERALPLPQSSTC

recombinant human vimentin, sequence (P08670 whole entry): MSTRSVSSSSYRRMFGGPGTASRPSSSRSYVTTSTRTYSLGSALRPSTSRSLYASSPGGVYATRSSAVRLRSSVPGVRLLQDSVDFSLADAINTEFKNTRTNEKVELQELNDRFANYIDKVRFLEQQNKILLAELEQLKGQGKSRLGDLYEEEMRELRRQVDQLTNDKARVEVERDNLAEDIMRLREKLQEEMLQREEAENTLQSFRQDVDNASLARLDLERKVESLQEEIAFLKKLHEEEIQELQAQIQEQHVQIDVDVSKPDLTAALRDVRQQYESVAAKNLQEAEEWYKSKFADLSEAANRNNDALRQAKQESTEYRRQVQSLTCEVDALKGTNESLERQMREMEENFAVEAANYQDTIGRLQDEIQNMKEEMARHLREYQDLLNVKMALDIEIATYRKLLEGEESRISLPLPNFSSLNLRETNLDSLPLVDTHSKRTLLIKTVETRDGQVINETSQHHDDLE

MTT proliferation of MCF-7 cells treated with recombinant human vimentin (0, 50, 100, 200 ng/mL), 72 h; value printed for 100 ng/mL: > 20%
Substance: recombinant human vimentin (from UniProt P08670 1-466) (natural protein)
